Four substances from US20060159695A1 can be followed below.

What is called Kd is the constant that tells how readily two partners part at equilibrium. One may read the koff as the rate constant with which the complex falls apart. Usually kon stands for a measure of how fast the partners come together.

In assay [1] the target is RSV F protein (A2 strain) G438A (human RSV, A2 strain) (UniProt P03420). Kind of assay: cell ELISA, 293T cells expressing F. In general terms: In an ELISA, binding on a coated surface is turned into a signal by an enzyme label.
Assay [2] has as its target RSV F protein (A2 strain) D486N (human RSV, A2 strain) (UniProt P03420). Kind of assay: cell ELISA, 293T cells expressing F.
Assay [3] addresses RSV F protein (A2 strain) K272M (human RSV, A2 strain) (UniProt P03420). Kind of assay: cell ELISA, 293T cells expressing F.
For assay [4], the target named is RSV F protein (A2 strain) R429S (human RSV, A2 strain) (UniProt P03420). The assay can be described thus: cell ELISA, 293T cells expressing F.
Assay [5] concerns the target RSV F protein (A2 strain) I432T (human RSV, A2 strain) (UniProt P03420). Kind of assay: cell ELISA, 293T cells expressing F.
The target of assay [6] is RSV F protein (A2 strain) K433L (human RSV, A2 strain) (UniProt P03420). Kind of assay: cell ELISA, 293T cells expressing F.
The target of assay [7] is RSV F protein (A2 strain) I432L (human RSV, A2 strain) (UniProt P03420). Kind of assay: cell ELISA, 293T cells expressing F.
Assay [8] deals with RSV F protein (A2 strain) R429K (human RSV, A2 strain) (UniProt P03420). The assay can be described thus: cell ELISA, 293T cells expressing F.
Assay [9] has as its target RSV F protein (A2 strain) K427Q (human RSV, A2 strain) (UniProt P03420). The assay can be described thus: cell ELISA, 293T cells expressing F.
The target in assay [10] is RSV F protein (A2 strain) F483L (human RSV, A2 strain) (UniProt P03420). The assay can be described thus: cell ELISA, 293T cells expressing F.
For assay [11], the target named is RSV F protein (A2 strain) F488Y (human RSV, A2 strain) (UniProt P03420). Kind of assay: cell ELISA, 293T cells expressing F.
Assay [12] has as its target RSV F protein (A2 strain) T400A (human RSV, A2 strain) (UniProt P03420). The assay can be described thus: cell ELISA, 293T cells expressing F.
Assay [13] has as its target Wild-type RSV F protein (subgroup A, A2 strain) (human RSV, A2 strain) (UniProt P03420). The assay can be described thus: cell ELISA, 293T cells expressing F.
The target of assay [14] is RSV F protein (A2 strain) K272N (human RSV, A2 strain) (UniProt P03420). Kind of assay: cell ELISA, 293T cells expressing F.
In assay [15] the target is RSV F protein (A2 strain) K272Q (human RSV, A2 strain) (UniProt P03420). The assay can be described thus: cell ELISA, 293T cells expressing F.
Assay [16] addresses Wild-type RSV F protein (subgroup B, 18537 strain) (human RSV, 18537 strain) (UniProt P13843). The assay can be described thus: cell ELISA, 293T cells expressing F.
The target of assay [17] is RSV F protein (A2 strain) K433T (human RSV, A2 strain) (UniProt P03420). Kind of assay: cell ELISA, 293T cells expressing F.
Assay [18] addresses RSV F protein (A2 strain) K433N (human RSV, A2 strain) (UniProt P03420). The assay can be described thus: cell ELISA, 293T cells expressing F.
For assay [19], the target named is RSV F protein (A2 strain) N428D (human RSV, A2 strain) (UniProt P03420). Kind of assay: cell ELISA, 293T cells expressing F.
Assay [20] concerns the target RSV F protein (A2 strain) G430A (human RSV, A2 strain) (UniProt P03420). The assay can be described thus: cell ELISA, 293T cells expressing F.
Assay [21] deals with RSV F protein (A2 strain) S436T (human RSV, A2 strain) (UniProt P03420). Kind of assay: cell ELISA, 293T cells expressing F.
For assay [22], the target named is RSV F protein (A2 strain) K427E (human RSV, A2 strain) (UniProt P03420). The assay can be described thus: cell ELISA, 293T cells expressing F.
Assay [23] has as its target RSV F protein (A2 strain) K433D (human RSV, A2 strain) (UniProt P03420). The assay can be described thus: cell ELISA, 293T cells expressing F.
For assay [24], the target named is RSV F protein (A2 strain) I431A (human RSV, A2 strain) (UniProt P03420). The assay can be described thus: cell ELISA, 293T cells expressing F.
Assay [25] concerns the target RSV F protein (A2 strain) S436F (human RSV, A2 strain) (UniProt P03420). The assay can be described thus: cell ELISA, 293T cells expressing F.
In assay [26] the target is RSV F protein (A2 strain) F483Y (human RSV, A2 strain) (UniProt P03420). The assay can be described thus: cell ELISA, 293T cells expressing F.
In assay [27] the target is RSV F protein (A2 strain) I431L (human RSV, A2 strain) (UniProt P03420). Kind of assay: cell ELISA, 293T cells expressing F.
For assay [28], the target named is RSV F protein (A2 strain) V447A (human RSV, A2 strain) (UniProt P03420). The assay can be described thus: cell ELISA, 293T cells expressing F.
The target of assay [29] is RSV F protein (A2 strain) K272T (human RSV, A2 strain) (UniProt P03420). The assay can be described thus: cell ELISA, 293T cells expressing F.
In assay [30] the target is RSV F protein (A2 strain) S275F (human RSV, A2 strain) (UniProt P03420). The assay can be described thus: cell ELISA, 293T cells expressing F.
In assay [31] the target is RSV F protein (A2 strain) K433Q (human RSV, A2 strain) (UniProt P03420). Kind of assay: cell ELISA, 293T cells expressing F.
In assay [32] the target is RSV F protein (A2 strain) K433S (human RSV, A2 strain) (UniProt P03420). Kind of assay: cell ELISA, 293T cells expressing F.
For assay [33], the target named is RSV F protein (A2 strain) N428Q (human RSV, A2 strain) (UniProt P03420). Kind of assay: cell ELISA, 293T cells expressing F.
For assay [34], the target named is RSV F protein (A2 strain) F435Y (human RSV, A2 strain) (UniProt P03420). The assay can be described thus: cell ELISA, 293T cells expressing F.
Assay [35] deals with RSV F protein (A2 strain) K433R (human RSV, A2 strain) (UniProt P03420). The assay can be described thus: cell ELISA, 293T cells expressing F.
Assay [36] has as its target RSV F protein (A2 strain) K427D (human RSV, A2 strain) (UniProt P03420). The assay can be described thus: cell ELISA, 293T cells expressing F.
Assay [37] concerns the target RSV F protein (A2 strain) C422S (human RSV, A2 strain) (UniProt P03420). Kind of assay: cell ELISA, 293T cells expressing F.
For assay [38], the target named is RSV F protein (A2 strain) I432Q (human RSV, A2 strain) (UniProt P03420). Kind of assay: cell ELISA, 293T cells expressing F.
For assay [39], the target named is RSV F protein (A2 strain) F488L (human RSV, A2 strain) (UniProt P03420). Kind of assay: cell ELISA, 293T cells expressing F.
The target of assay [40] is RSV F protein (A2 strain) T434S (human RSV, A2 strain) (UniProt P03420). Kind of assay: cell ELISA, 293T cells expressing F.
Assay [41] has as its target RSV F protein (A2 strain) N437D (human RSV, A2 strain) (UniProt P03420). The assay can be described thus: cell ELISA, 293T cells expressing F.
Assay [42] addresses RSV F protein on human RSV virus (Long strain) (human RSV, Long strain) (UniProt P12568). The assay can be described thus: cell-based or functional assay.
The target in assay [43] is soluble, extracellular domain of recombinantly expressed RSV F protein (human RSV). Kind of assay: SPR (BIAcore 3000), F protein amine-coupled to CM5 chip. In general terms: In SPR one partner is held on a chip, and binding of the other changes the refractive index at the surface.

Turning to chimeric 101F mAb (antibody), in assay [1], the % mAb binding relative to wild-type was 9.2%.

As for mAb19 (antibody), the % mAb binding relative to wild-type is 30.7% in assay [2]; 100% in [3]; 3.9% in [4]; 19% in assay [1]; 170% in assay [5]; 24.5% in assay [6]. Moreover, the % mAb binding relative to wild-type in assay [7] amounted to 64.4%; in assay [8], 11.2%; in assay [9], 155%; in assay [10], 101%; in assay [11] it was 56%; in assay [12], 161%. For the same substance, the % mAb binding relative to wild-type is 99.9% in assay [13]; 62.3% in assay [14]; 88.7% in assay [15]; 105% in [16]; 64.4% in [17]; 28.7% in assay [18]. Also, the % mAb binding relative to wild-type in assay [19] worked out at 121%; in [20], 0.15%; in assay [21], 85.8%; in assay [22] it was 68.7%; in [23] it was 1.6%; in assay [24], 81.8%. Besides, the % mAb binding relative to wild-type in assay [25] is 163%; in [26], 141%; in assay [27], 65.5%; in assay [28], 62.7%; in assay [29], 68%; in [30] it was 31.7%. In addition, the % mAb binding relative to wild-type in assay [31] was 47.4%; in assay [32] it was 112%; in assay [33], 194%; in assay [34], 9.2%; in [35], 23.1%; in assay [36], -12.7%. Moreover, the % mAb binding relative to wild-type in assay [37] was 194%; in assay [38], 57.9%; in assay [39], 40%; in assay [40] it was 84.9%; in assay [41] it was 33.2%.

In assay [42], palivizumab (antibody) registered an RSV neutralization IC50 (Palivizumab) of 0.1 µg/mL. Moreover, the Kd in assay [43] was determined as 1.1 nM.

palivizumab Fab: in assay [42], the RSV neutralization IC50 (Palivizumab Fab) was 3.2 µg/mL. Moreover, in assay [43], the dissociation constant Kd was 1.5 nM, the koff worked out at 0.0011 s⁻¹ and the kon turned out to be 720000 M⁻¹ s⁻¹.
